Results from the Human Domainome abundance scans (Beltran et al. 2025).
± gives the uncertainty stated by the source.

B1: Serine/threonine-protein kinase A-Raf, residues 21 to 89; numbered along this chain, P10398 (parent)
chain: VKVYLPNKQRTVVTVRDGMSVYDSLDKALKVRGLNQDCCVVYRLIKGRKTVTAWDTAIAPLDGEELIVE

Variants of: B1
Assay: abundance fitness (aPCA) (normalised: wild type 0, dead -1); higher = more abundant; growth selection in yeast, the domain comes from the species named
Details: Homo sapiens

Variant	abundance fitness
VKVYLPNKQRTVVTVRDGMSVYDSLDKALKVRGLNQDWCVVYRLIKGRKTVTAWDTAIAPLDGEELIVE	-0.179 ± 0.059
VKVYLPNKQRTVVTVRDGMSVYDSLDKALKVRGLNQDMCVVYRLIKGRKTVTAWDTAIAPLDGEELIVE	0.12 ± 0.09
VKVYLPNKQRTVVTVRDGMSVYDSLDKALKVRGLNQDECVVYRLIKGRKTVTAWDTAIAPLDGEELIVE	0.118 ± 0.091
VKVYLPNKQRTVVTVRDGMSVYDSLDKALKVRGLNQDHCVVYRLIKGRKTVTAWDTAIAPLDGEELIVE	-0.019 ± 0.11
VKVYLPNKQRTVVTVRDGMSVYDSLDKALKVRGLNQDNCVVYRLIKGRKTVTAWDTAIAPLDGEELIVE	0.141 ± 0.3
VKVYLPNKQRTVVTVRDGMSVYDSLDKALKVRGLNQDGCVVYRLIKGRKTVTAWDTAIAPLDGEELIVE	0.038 ± 0.052
VKVYLPNKQRTVVTVRDGMSVYDSLDKALKVRGLNQDYCVVYRLIKGRKTVTAWDTAIAPLDGEELIVE	-0.082 ± 0.12
VKVYLPNKQRTVVTVRDGMSVYDSLDKALKVRGLNQDQCVVYRLIKGRKTVTAWDTAIAPLDGEELIVE	-0.037 ± 0.072
VKVYLPNKQRTVVTVRDGMSVYDSLDKALKVRGLNQDTCVVYRLIKGRKTVTAWDTAIAPLDGEELIVE	-0.004 ± 0.082
VKVYLPNKQRTVVTVRDGMSVYDSLDKALKVRGLNQDFCVVYRLIKGRKTVTAWDTAIAPLDGEELIVE	-0.136 ± 0.097
VKVYLPNKQRTVVTVRDGMSVYDSLDKALKVRGLNQDPCVVYRLIKGRKTVTAWDTAIAPLDGEELIVE	-0.677 ± 0.14
VKVYLPNKQRTVVTVRDGMSVYDSLDKALKVRGLNQDRCVVYRLIKGRKTVTAWDTAIAPLDGEELIVE	-0.094 ± 0.051
VKVYLPNKQRTVVTVRDGMSVYDSLDKALKVRGLNQDVCVVYRLIKGRKTVTAWDTAIAPLDGEELIVE	-0.075 ± 0.063
VKVYLPNKQRTVVTVRDGMSVYDSLDKALKVRGLNQDICVVYRLIKGRKTVTAWDTAIAPLDGEELIVE	-0.074 ± 0.1
VKVYLPNKQRTVVTVRDGMSVYDSLDKALKVRGLNQRCCVVYRLIKGRKTVTAWDTAIAPLDGEELIVE	-0.198 ± 0.059
VKVYLPNKQRTVVTVRDGMSVYDSLDKALKVRGLNQVCCVVYRLIKGRKTVTAWDTAIAPLDGEELIVE	-0.755 ± 0.13
VKVYLPNKQRTVVTVRDGMSVYDSLDKALKVRGLNQSCCVVYRLIKGRKTVTAWDTAIAPLDGEELIVE	-0.196 ± 0.079
VKVYLPNKQRTVVTVRDGMSVYDSLDKALKVRGLNQYCCVVYRLIKGRKTVTAWDTAIAPLDGEELIVE	-0.408 ± 0.15
VKVYLPNKQRTVVTVRDGMSVYDSLDKALKVRGLNQWCCVVYRLIKGRKTVTAWDTAIAPLDGEELIVE	-0.838 ± 0.31
VKVYLPNKQRTVVTVRDGMSVYDSLDKALKVRGLNQTCCVVYRLIKGRKTVTAWDTAIAPLDGEELIVE	-0.387 ± 0.16

Variant	abundance fitness
VKVYLPNKQRTVVTVRDGMSVYDSLDKALKVRGLNQDCPVVYRLIKGRKTVTAWDTAIAPLDGEELIVE	-0.805 ± 0.2
VKVYLPNKQRTVVTVRDGMSVYDSLDKALKVRGLNQDCAVVYRLIKGRKTVTAWDTAIAPLDGEELIVE	-0.504 ± 0.1
VKVYLPNKQRTVVTVRDGMSVYDSLDKALKVRGLNQDCWVVYRLIKGRKTVTAWDTAIAPLDGEELIVE	-0.841 ± 0.38
VKVYLPNKQRTVVTVRDGMSVYDSLDKALKVRGLNQDCEVVYRLIKGRKTVTAWDTAIAPLDGEELIVE	-1.16 ± 0.36
VKVYLPNKQRTVVTVRDGMSVYDSLDKALKVRGLNQDCSVVYRLIKGRKTVTAWDTAIAPLDGEELIVE	-0.585 ± 0.11
VKVYLPNKQRTVVTVRDGMSVYDSLDKALKVRGLNQDCRVVYRLIKGRKTVTAWDTAIAPLDGEELIVE	-0.987 ± 0.2
VKVYLPNKQRTVVTVRDGMSVYDSLDKALKVRGLNQDCVVVYRLIKGRKTVTAWDTAIAPLDGEELIVE	-0.161 ± 0.066
VKVYLPNKQRTVVTVRDGMSVYDSLDKALKVRGLNQDCNVVYRLIKGRKTVTAWDTAIAPLDGEELIVE	-0.848 ± 0.2
VKVYLPNKQRTVVTVRDGMSVYDSLDKALKVRGLNQDCIVVYRLIKGRKTVTAWDTAIAPLDGEELIVE	-0.766 ± 0.27
VKVYLPNKQRTVVTVRDGMSVYDSLDKALKVRGLNQDCGVVYRLIKGRKTVTAWDTAIAPLDGEELIVE	-0.944 ± 0.18
VKVYLPNKQRTVVTVRDGMSVYDSLDKALKVRGLNQDCHVVYRLIKGRKTVTAWDTAIAPLDGEELIVE	-0.171 ± 0.093
VKVYLPNKQRTVVTVRDGMSVYDSLDKALKVRGLNQDCFVVYRLIKGRKTVTAWDTAIAPLDGEELIVE	-0.466 ± 0.13
VKVYLPNKQRTVVTVRDGMSVYDSLDKALKVRGLNQDCMVVYRLIKGRKTVTAWDTAIAPLDGEELIVE	-0.432 ± 0.1
VKVYLPNKQRTVVTVRDGMSVYDSLDKALKVRGLNQDCCVTYRLIKGRKTVTAWDTAIAPLDGEELIVE	-0.8 ± 0.28
VKVYLPNKQRTVVTVRDGMSVYDSLDKALKVRGLNQDCCVYYRLIKGRKTVTAWDTAIAPLDGEELIVE	-0.938 ± 0.38
VKVYLPNKQRTVVTVRDGMSVYDSLDKALKVRGLNQDCCVLYRLIKGRKTVTAWDTAIAPLDGEELIVE	-0.143 ± 0.036
VKVYLPNKQRTVVTVRDGMSVYDSLDKALKVRGLNQDCCVNYRLIKGRKTVTAWDTAIAPLDGEELIVE	-0.836 ± 0.31
VKVYLPNKQRTVVTVRDGMSVYDSLDKALKVRGLNQDCCVRYRLIKGRKTVTAWDTAIAPLDGEELIVE	-0.559 ± 0.099
VKVYLPNKQRTVVTVRDGMSVYDSLDKALKVRGLNQDCCVKYRLIKGRKTVTAWDTAIAPLDGEELIVE	-0.685 ± 0.15
